Measured values: article PMC4250405

Molecular target: taxol-stabilized microtubules (UniProt Q6B856)
Experiment: optical trap bead assay

Substance: p150^Glued fragment p150 1-555 (from UniProt P28023 1-555) (domain or fragment)
- MT binding time of diffusive beads: 54.3 s
